Results: patent US20090170126A1
Ends that are not written are not given here.

Assays:
[1] = molecular target: commercially available anti-prostasin mouse monoclonal antibody (BD Biosciences, catalog No. 612173); assay: competitive immunoassay, commercial monoclonal antibody-immobilized plate; competitor POD-labeled recombinant full-length prostasin 6.4 µg/mL; unlabeled recombinant full-length prostasin 25 ng/mL
[2] = molecular target: commercially available anti-prostasin mouse monoclonal antibody (BD Biosciences, catalog No. 612173); assay: competitive immunoassay, commercial monoclonal antibody-immobilized plate; competitor POD-labeled recombinant full-length prostasin 6.4 µg/mL; unlabeled recombinant full-length prostasin 10 ng/mL
[3] = molecular target: commercially available anti-prostasin mouse monoclonal antibody (BD Biosciences, catalog No. 612173); assay: competitive immunoassay, commercial monoclonal antibody-immobilized plate; competitor POD-labeled recombinant full-length prostasin 6.4 µg/mL; unlabeled recombinant full-length prostasin 5 ng/mL
[4] = molecular target: commercially available anti-prostasin mouse monoclonal antibody (BD Biosciences, catalog No. 612173); assay: competitive immunoassay, commercial monoclonal antibody-immobilized plate; competitor POD-labeled recombinant full-length prostasin 6.4 µg/mL; unlabeled recombinant full-length prostasin 0 ng/mL
[5] = molecular target: commercially available anti-prostasin mouse monoclonal antibody (BD Biosciences, catalog No. 612173); assay: competitive immunoassay, commercial monoclonal antibody-immobilized plate; competitor POD-labeled recombinant full-length prostasin 6.4 µg/mL; unlabeled recombinant full-length prostasin 50 ng/mL
[6] = molecular target: commercially available anti-prostasin mouse monoclonal antibody (BD Biosciences, catalog No. 612173); assay: competitive immunoassay, commercial monoclonal antibody-immobilized plate; competitor POD-labeled recombinant full-length prostasin 6.4 µg/mL; unlabeled recombinant full-length prostasin 100 ng/mL
[7] = molecular target: affinity-purified antibody (a); assay: antibody (a)-immobilized plate; POD-labeled peptide (a) 0.05 µg/mL; competitor unlabeled partial peptide (a) 50 ng/mL
[8] = molecular target: affinity-purified antibody (a); assay: antibody (a)-immobilized plate; POD-labeled peptide (a) 0.20 µg/mL; competitor unlabeled partial peptide (a) 50 ng/mL
[9] = molecular target: affinity-purified antibody (a); assay: difference of absorbance between 0 and 50 ng/mL unlabeled partial peptide (a); antibody (a)-immobilized plate; POD-labeled peptide (a) 0.15 µg/mL
[10] = molecular target: affinity-purified antibody (a); assay: antibody (a)-immobilized plate; POD-labeled peptide (a) 0.25 µg/mL; competitor unlabeled partial peptide (a) 50 ng/mL
[11] = molecular target: affinity-purified antibody (a); assay: antibody (a)-immobilized plate; POD-labeled peptide (a) 0.10 µg/mL; unlabeled partial peptide (a) 0 ng/mL
[12] = molecular target: affinity-purified antibody (a); assay: antibody (a)-immobilized plate; POD-labeled peptide (a) 0.25 µg/mL; unlabeled partial peptide (a) 0 ng/mL
[13] = molecular target: affinity-purified antibody (a); assay: difference of absorbance between 0 and 50 ng/mL unlabeled partial peptide (a); antibody (a)-immobilized plate; POD-labeled peptide (a) 0.25 µg/mL
[14] = molecular target: affinity-purified antibody (a); assay: antibody (a)-immobilized plate; POD-labeled peptide (a) 0.05 µg/mL; unlabeled partial peptide (a) 0 ng/mL
[15] = molecular target: affinity-purified antibody (a); assay: antibody (a)-immobilized plate; POD-labeled peptide (a) 0.10 µg/mL; competitor unlabeled partial peptide (a) 50 ng/mL
[16] = molecular target: affinity-purified antibody (a); assay: difference of absorbance between 0 and 50 ng/mL unlabeled partial peptide (a); antibody (a)-immobilized plate; POD-labeled peptide (a) 0.05 µg/mL
[17] = molecular target: affinity-purified antibody (a); assay: antibody (a)-immobilized plate; POD-labeled peptide (a) 0.025 µg/mL; unlabeled partial peptide (a) 0 ng/mL
[18] = molecular target: affinity-purified antibody (a); assay: difference of absorbance between 0 and 50 ng/mL unlabeled partial peptide (a); antibody (a)-immobilized plate; POD-labeled peptide (a) 0.20 µg/mL
[19] = molecular target: affinity-purified antibody (a); assay: difference of absorbance between 0 and 50 ng/mL unlabeled partial peptide (a); antibody (a)-immobilized plate; POD-labeled peptide (a) 0.10 µg/mL
[20] = molecular target: affinity-purified antibody (a); assay: difference of absorbance between 0 and 50 ng/mL unlabeled partial peptide (a); antibody (a)-immobilized plate; POD-labeled peptide (a) 0.025 µg/mL
[21] = molecular target: affinity-purified antibody (a); assay: antibody (a)-immobilized plate; POD-labeled peptide (a) 0.20 µg/mL; unlabeled partial peptide (a) 0 ng/mL
[22] = molecular target: affinity-purified antibody (a); assay: antibody (a)-immobilized plate; POD-labeled peptide (a) 0.025 µg/mL; competitor unlabeled partial peptide (a) 50 ng/mL
[23] = molecular target: affinity-purified antibody (a); assay: antibody (a)-immobilized plate; POD-labeled peptide (a) 0.15 µg/mL; competitor unlabeled partial peptide (a) 50 ng/mL
[24] = molecular target: affinity-purified antibody (a); assay: antibody (a)-immobilized plate; POD-labeled peptide (a) 0.15 µg/mL; unlabeled partial peptide (a) 0 ng/mL
[25] = molecular target: affinity-purified antibody (c); assay: competitive immunoassay, antibody (c)-immobilized plate; competitor POD-labeled partial peptide (c) 0.35 µg/mL; unlabeled peptide (c) 5 ng/mL
[26] = molecular target: affinity-purified antibody (c); assay: competitive immunoassay, antibody (c)-immobilized plate; competitor POD-labeled partial peptide (c) 0.35 µg/mL; unlabeled peptide (c) 0 ng/mL
[27] = molecular target: affinity-purified antibody (c); assay: competitive immunoassay, antibody (c)-immobilized plate; competitor POD-labeled partial peptide (c) 0.35 µg/mL; unlabeled peptide (c) 10 ng/mL
[28] = molecular target: affinity-purified antibody (c); assay: competitive immunoassay, antibody (c)-immobilized plate; competitor POD-labeled partial peptide (c) 0.35 µg/mL; unlabeled peptide (c) 100 ng/mL
[29] = molecular target: affinity-purified antibody (c); assay: competitive immunoassay, antibody (c)-immobilized plate; competitor POD-labeled partial peptide (c) 0.35 µg/mL; unlabeled peptide (c) 25 ng/mL
[30] = molecular target: affinity-purified antibody (c); assay: competitive immunoassay, antibody (c)-immobilized plate; competitor POD-labeled partial peptide (c) 0.35 µg/mL; unlabeled peptide (c) 50 ng/mL
[31] = molecular target: affinity-purified antibody (e); assay: competitive immunoassay, antibody (e)-immobilized plate; competitor POD-labeled partial peptide (e) 0.30 µg/mL; unlabeled peptide (e) 0 ng/mL
[32] = molecular target: affinity-purified antibody (e); assay: competitive immunoassay, antibody (e)-immobilized plate; competitor POD-labeled partial peptide (e) 0.30 µg/mL; unlabeled peptide (e) 10 ng/mL
[33] = molecular target: affinity-purified antibody (e); assay: competitive immunoassay, antibody (e)-immobilized plate; competitor POD-labeled partial peptide (e) 0.30 µg/mL; unlabeled peptide (e) 5 ng/mL
[34] = molecular target: affinity-purified antibody (e); assay: competitive immunoassay, antibody (e)-immobilized plate; competitor POD-labeled partial peptide (e) 0.30 µg/mL; unlabeled peptide (e) 25 ng/mL
[35] = molecular target: affinity-purified antibody (e); assay: competitive immunoassay, antibody (e)-immobilized plate; competitor POD-labeled partial peptide (e) 0.30 µg/mL; unlabeled peptide (e) 100 ng/mL
[36] = molecular target: affinity-purified antibody (e); assay: competitive immunoassay, antibody (e)-immobilized plate; competitor POD-labeled partial peptide (e) 0.30 µg/mL; unlabeled peptide (e) 50 ng/mL

Molecule “recombinant protein of full-length prostasin (prepared according to the method of Chen, L-M. et al., J. Biol. Chem., Vol. 276, pp. 21434-21442, 2001) (from UniProt Q16651 33-322) (enzyme)” has an absorbance (Abs) [1] of 1.12 Abs, an absorbance (Abs) [2] of 1.19 Abs and an absorbance (Abs) [3] of 1.21 Abs. The absorbance (Abs) [4] was 1.18 Abs, the absorbance (Abs) [5] was 1.09 Abs and the absorbance (Abs) [6] was 1.22 Abs.

B1: POD-labeled partial peptide (a) (peptide)
peptide: AHQLDSYSEDAKVSTLKDI
modifications: also: peroxidase (POD) label, attachment site not given here
For B1, the absorbance (Abs) [7] was 0.477 Abs, the absorbance (Abs) [8] was 1.5 Abs and the ΔOD [absorbance (Abs)] [9] was 0.79 Abs. It also gave an absorbance (Abs) [10] of 1.99 Abs, an absorbance (Abs) [11] of 1.41 Abs and an absorbance (Abs) [12] of 2.91 Abs. It also gave a ΔOD [absorbance (Abs)] [13] of 0.925 Abs, an absorbance (Abs) [14] of 0.815 Abs and an absorbance (Abs) [15] of 0.809 Abs. It also gave a ΔOD [absorbance (Abs)] [16] of 0.338 Abs, an absorbance (Abs) [17] of 0.418 Abs and a ΔOD [absorbance (Abs)] [18] of 0.901 Abs. The ΔOD [absorbance (Abs)] [19] was 0.596 Abs, the ΔOD [absorbance (Abs)] [20] was 0.187 Abs and the absorbance (Abs) [21] was 2.4 Abs. For the same molecule, the absorbance (Abs) [22] was 0.231 Abs, the absorbance (Abs) [23] was 1.25 Abs and the absorbance (Abs) [24] was 2.04 Abs.

B2: partial peptide (c) of prostasin (peptide)
peptide: NCLYNIDAKPEEPHFVQED
Work on B2 yielded an absorbance (Abs) [25] of 1.08 Abs, an absorbance (Abs) [26] of 1.09 Abs and an absorbance (Abs) [27] of 1.11 Abs. The absorbance (Abs) [28] was 0.943 Abs, the absorbance (Abs) [29] was 1.12 Abs and the absorbance (Abs) [30] was 0.938 Abs.

B3: partial peptide (e) of prostasin (peptide)
peptide: PQTQESQPDSN
In the case of B3, the absorbance (Abs) [31] is reported as 1.97 Abs, the absorbance (Abs) [32] is reported as 1.62 Abs and the absorbance (Abs) [33] is reported as 1.96 Abs. It also gave an absorbance (Abs) [34] of 1.55 Abs, an absorbance (Abs) [35] of 1.49 Abs and an absorbance (Abs) [36] of 1.41 Abs.
